# Data from patent US11066482B2, “Specific plasmin inactivation by anticatalytic antibody” (priority 2017, dated 2021).
# Key:
# [1] = target: protease domain of reduced human plasmin (Homo sapiens, UniProt P00747); assay: Immunoblotting of reduced human plasmin; type: binding
# Description: FIGS. 1A-1D show binding specificity and avidity of Pi for human plasmin. […] Relative migration of molecular standards (kDa) is shown. […] Wells of a microtiter plate were coated with native (wild-type, WT) or various microplasmin loop mutants (5 ug/ml). After blocking, Pi, a polyclonal rabbit anti-plasmin (plasmin Ab) or a non-reactive mouse (anti-digoxin, control) antibody (1 ug/ml) were added to wells. The bound antibodies (Pi, control) were detected by a secondary anti-mouse peroxidase (1:10,000) and the plasmin antibodies were detected by anti-rabbit peroxidase antibody (1:5,000) followed by TMB substrate with monitoring at A405. […] Wells of microtiter plate were coated with human plasminogen (2 ug/ml). After blocking and washing, various concentrations of purified Pi (shown) were added for 1 h. After washing the amount of antibody bound was detected by a secondary anti-mouse antibody followed by TMB substrate with monitoring at A405 nm. Data shown the means±SE of triplicate observations, experiments repeated at least twice. The data were analyzed with Graphpad Prism, r=0.95.
# chymotrypsin = assay: Specificity of Pi binding (ELISA); conditions: plate coated 10 ug/ml
# Description: (§1) FIGS. 3A-3D show binding and inhibitory specificity of Pi. […] The effect of various concentrations of Pi (0-2000 nM) on clots formed with human, baboon or African green monkey plasmas. Clot lysis was measured in microtiter plates after addition of urokinase as described in Methods.
# (§2) Specificity of Pi binding. The binding of the Pi to different serine proteases was assessed by ELISA in 96-well plates coated with human plasminogen, mouse plasminogen, tPA, trypsin or chymotrypsin (10 ug/ml) and blocked with 1% BSA. After incubation and washing, Pi or control monoclonal antibody supernatants (anti-digoxin) were added to the wells for 1 h in triplicate. Then goat anti mouse antibody conjugated with HRP (1:5000, Sc-2005, Santa Cruz) was then added. The plate was washed after incubation for 1 h. TMB was added to the wells and absorbance at 370 nm was recorded.
# human tPA = human tPA (Homo sapiens, UniProt P00750); assay: Specificity of Pi binding (ELISA); conditions: plate coated 10 ug/ml
# Sequence of human tPA (P00750 36-562): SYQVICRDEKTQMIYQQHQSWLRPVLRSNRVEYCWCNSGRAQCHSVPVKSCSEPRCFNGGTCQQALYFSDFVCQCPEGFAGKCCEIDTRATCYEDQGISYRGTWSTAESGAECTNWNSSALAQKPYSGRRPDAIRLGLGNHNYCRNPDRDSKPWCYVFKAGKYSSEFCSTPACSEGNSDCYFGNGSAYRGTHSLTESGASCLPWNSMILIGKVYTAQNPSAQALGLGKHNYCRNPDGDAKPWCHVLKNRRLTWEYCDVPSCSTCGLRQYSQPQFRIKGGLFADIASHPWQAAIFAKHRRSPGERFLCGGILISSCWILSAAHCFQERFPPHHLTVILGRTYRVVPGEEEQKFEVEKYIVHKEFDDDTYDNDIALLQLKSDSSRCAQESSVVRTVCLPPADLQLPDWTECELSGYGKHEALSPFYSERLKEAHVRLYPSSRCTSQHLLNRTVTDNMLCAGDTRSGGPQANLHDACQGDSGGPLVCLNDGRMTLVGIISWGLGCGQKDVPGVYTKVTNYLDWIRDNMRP
# Description: as §1, §2
# mouse plasminogen = mouse plasminogen (Mus musculus, UniProt P20918); assay: Specificity of Pi binding (ELISA); conditions: plate coated 10 ug/ml
# Sequence of mouse plasminogen (P20918 20-812 limits assumed): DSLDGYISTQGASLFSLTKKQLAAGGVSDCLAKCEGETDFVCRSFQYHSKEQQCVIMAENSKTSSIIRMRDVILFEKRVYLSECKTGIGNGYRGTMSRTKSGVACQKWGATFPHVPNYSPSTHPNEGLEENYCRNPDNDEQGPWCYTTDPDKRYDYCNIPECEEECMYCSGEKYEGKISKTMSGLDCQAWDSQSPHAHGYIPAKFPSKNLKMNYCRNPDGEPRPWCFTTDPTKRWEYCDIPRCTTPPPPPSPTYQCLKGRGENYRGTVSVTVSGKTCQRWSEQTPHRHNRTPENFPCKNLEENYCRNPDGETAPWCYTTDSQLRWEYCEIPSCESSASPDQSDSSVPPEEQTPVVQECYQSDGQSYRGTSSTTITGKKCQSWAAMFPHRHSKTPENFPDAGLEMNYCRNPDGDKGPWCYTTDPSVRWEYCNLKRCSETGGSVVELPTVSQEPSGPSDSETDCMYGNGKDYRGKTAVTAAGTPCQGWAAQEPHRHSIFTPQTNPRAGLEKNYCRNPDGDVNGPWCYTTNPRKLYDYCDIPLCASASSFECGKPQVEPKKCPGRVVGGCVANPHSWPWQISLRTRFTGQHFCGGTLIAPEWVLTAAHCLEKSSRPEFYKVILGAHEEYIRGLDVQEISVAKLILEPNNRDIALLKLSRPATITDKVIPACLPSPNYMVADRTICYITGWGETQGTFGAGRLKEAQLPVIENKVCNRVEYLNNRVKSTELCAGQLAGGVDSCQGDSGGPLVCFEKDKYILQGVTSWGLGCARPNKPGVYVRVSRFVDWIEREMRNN
# Description: as §1, §2
# trypsin = assay: Specificity of Pi binding (ELISA); conditions: plate coated 10 ug/ml
# Description: as §1, §2
# [2] = target: T1, plasmin activity in bovine plasma (Bos taurus, UniProt P06868); assay: Plasmin activity in plasma after urokinase, S2251; type: biochemical; conditions: Pi 1 uM
# T1 construct: from tissue; host or cells: bovine plasma
# T1 sequence (P06868 104-583 limits assumed): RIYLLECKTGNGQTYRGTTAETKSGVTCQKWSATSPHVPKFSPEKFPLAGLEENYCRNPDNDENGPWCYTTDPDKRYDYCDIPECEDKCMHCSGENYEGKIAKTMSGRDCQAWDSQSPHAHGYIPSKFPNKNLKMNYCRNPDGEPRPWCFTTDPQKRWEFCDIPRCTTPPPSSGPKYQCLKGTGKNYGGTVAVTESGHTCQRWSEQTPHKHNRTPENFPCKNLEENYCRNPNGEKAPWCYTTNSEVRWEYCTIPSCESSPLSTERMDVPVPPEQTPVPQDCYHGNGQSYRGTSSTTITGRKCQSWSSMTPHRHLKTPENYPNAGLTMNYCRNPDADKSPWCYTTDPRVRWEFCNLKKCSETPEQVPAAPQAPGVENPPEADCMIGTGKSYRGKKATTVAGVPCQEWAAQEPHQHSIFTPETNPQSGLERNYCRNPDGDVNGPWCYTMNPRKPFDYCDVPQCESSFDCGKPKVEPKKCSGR
# T1 sequence (P06868 584-812 limits assumed): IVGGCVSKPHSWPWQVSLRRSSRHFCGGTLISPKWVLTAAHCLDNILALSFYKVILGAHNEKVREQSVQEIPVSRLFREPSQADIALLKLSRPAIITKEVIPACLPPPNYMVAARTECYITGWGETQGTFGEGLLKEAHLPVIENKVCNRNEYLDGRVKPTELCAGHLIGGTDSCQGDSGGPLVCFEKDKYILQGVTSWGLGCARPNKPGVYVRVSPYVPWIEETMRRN
# Description: as §1
# (§3) Specificity of plasmin inhibition. The effect of the Pi on different animal plasmins was examined after addition of the plasminogen activator urokinase. Various animal plasmas (5 ul) were mixed in microtiter plates in the presence of Pi (1 uM, 10 ul) or buffer, S2251 (10 ul, 0.5 mM final), urokinase (100 or 200 U) in a total volume of 100 ul with PBS. The plates were incubated at 37 deg. C. and the rate of plasmin generation was monitored by substrate cleavage at 405 nm for 1 hr.
# [3] = tested on: plasmin activity in cat plasma; assay: Plasmin activity in plasma after urokinase, S2251; type: biochemical; conditions: Pi 1 uM
# Description: as §1, §3
# [4] = target: T2, plasmin activity in dog plasma (Canis lupus familiaris, UniProt P80009); assay: Plasmin activity in plasma after urokinase, S2251; type: biochemical; conditions: Pi 1 uM
# T2 construct: from tissue; host or cells: dog plasma
# T2 sequence (P80009 with tags, fused parts or gaps): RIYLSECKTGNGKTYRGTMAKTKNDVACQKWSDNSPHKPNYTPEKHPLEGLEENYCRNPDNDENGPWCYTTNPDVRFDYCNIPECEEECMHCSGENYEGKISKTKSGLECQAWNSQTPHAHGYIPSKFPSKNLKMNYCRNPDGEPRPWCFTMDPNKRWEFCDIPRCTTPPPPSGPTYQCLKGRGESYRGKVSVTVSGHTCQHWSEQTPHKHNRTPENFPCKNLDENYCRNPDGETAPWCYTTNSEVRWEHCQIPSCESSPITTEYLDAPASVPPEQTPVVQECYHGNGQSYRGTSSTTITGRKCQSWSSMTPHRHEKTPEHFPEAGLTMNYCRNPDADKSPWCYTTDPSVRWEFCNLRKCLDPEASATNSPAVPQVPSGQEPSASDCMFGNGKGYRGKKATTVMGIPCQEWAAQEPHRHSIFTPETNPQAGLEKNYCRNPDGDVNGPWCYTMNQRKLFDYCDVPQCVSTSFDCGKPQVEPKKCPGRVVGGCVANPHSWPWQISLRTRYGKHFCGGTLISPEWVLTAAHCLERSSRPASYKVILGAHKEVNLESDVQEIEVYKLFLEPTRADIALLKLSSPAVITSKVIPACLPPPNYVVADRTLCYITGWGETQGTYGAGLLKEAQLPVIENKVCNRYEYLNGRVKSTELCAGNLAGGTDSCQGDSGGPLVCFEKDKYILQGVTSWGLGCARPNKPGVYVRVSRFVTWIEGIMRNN
# Description: as §1, §3
# [5] = tested on: plasmin activity in gerbil plasma; assay: Plasmin activity in plasma after urokinase, S2251; type: biochemical; conditions: Pi 1 uM
# Description: as §1, §3
# [6] = tested on: plasmin activity in guinea pig plasma; assay: Plasmin activity in plasma after urokinase, S2251; type: biochemical; conditions: Pi 1 uM
# Description: as §1, §3
# [7] = tested on: plasmin activity in hamster plasma; assay: Plasmin activity in plasma after urokinase, S2251; type: biochemical; conditions: Pi 1 uM
# Description: as §1, §3
# [8] = target: T3, plasmin activity in pig plasma (Sus scrofa, UniProt P06867); assay: Plasmin activity in plasma after urokinase, S2251; type: biochemical; conditions: Pi 1 uM
# T3 construct: from tissue; host or cells: pig plasma
# T3 sequence (P06867 97-579 limits assumed): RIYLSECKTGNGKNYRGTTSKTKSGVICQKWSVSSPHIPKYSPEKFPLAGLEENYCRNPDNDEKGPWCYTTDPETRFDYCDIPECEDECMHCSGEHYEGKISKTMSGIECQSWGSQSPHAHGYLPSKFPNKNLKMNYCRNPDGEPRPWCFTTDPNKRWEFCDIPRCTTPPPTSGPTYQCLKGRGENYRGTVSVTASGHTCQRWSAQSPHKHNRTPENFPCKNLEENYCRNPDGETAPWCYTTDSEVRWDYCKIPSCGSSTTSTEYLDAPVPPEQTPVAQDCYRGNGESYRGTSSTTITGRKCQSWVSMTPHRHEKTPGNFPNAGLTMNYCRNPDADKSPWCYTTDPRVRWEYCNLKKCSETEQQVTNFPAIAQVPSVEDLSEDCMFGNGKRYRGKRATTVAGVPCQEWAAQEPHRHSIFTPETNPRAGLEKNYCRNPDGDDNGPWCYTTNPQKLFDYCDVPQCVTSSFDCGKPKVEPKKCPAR
# T3 sequence (P06867 580-809 limits assumed): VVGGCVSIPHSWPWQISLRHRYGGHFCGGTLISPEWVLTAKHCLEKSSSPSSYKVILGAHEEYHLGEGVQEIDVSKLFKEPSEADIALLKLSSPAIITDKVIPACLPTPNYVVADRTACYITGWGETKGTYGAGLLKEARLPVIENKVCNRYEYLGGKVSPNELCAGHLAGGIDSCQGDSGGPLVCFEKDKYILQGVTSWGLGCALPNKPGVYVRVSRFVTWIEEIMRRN
# Description: as §1, §3
# [9] = tested on: plasmin activity in rabbit plasma; assay: Plasmin activity in plasma after urokinase, S2251; type: biochemical; conditions: Pi 1 uM
# Description: as §1, §3
# [10] = target: T4, plasmin activity in rat plasma (Rattus norvegicus, UniProt Q01177); assay: Plasmin activity in plasma after urokinase, S2251; type: biochemical; conditions: Pi 1 uM
# T4 construct: from tissue; host or cells: rat plasma
# T4 sequence (Q01177 97-581 limits assumed): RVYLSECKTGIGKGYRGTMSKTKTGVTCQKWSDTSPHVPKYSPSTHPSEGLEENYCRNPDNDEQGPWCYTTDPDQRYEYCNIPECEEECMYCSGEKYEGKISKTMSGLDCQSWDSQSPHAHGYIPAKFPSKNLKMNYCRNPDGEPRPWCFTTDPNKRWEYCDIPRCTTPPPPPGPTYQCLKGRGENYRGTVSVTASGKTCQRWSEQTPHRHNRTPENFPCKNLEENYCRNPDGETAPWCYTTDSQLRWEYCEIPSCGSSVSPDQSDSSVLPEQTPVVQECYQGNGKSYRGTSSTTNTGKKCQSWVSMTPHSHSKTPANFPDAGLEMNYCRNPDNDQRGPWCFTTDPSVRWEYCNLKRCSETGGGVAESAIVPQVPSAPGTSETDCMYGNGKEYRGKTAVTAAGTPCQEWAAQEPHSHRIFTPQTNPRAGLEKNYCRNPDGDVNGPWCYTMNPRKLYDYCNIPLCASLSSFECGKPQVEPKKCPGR
# T4 sequence (Q01177 582-812 limits assumed): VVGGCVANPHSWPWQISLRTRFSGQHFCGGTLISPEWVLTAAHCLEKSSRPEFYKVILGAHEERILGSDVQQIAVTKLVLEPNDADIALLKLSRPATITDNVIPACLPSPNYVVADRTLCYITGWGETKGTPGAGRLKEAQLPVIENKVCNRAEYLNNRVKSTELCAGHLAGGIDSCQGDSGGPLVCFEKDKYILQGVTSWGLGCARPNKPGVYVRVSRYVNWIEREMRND
# Description: as §1, §3
# plasmin in human plasma = target: T5, plasmin in human plasma (Homo sapiens, UniProt P00747); assay: Plasmin activity in plasma after urokinase, S2251; type: biochemical; conditions: Pi 1 uM
# T5 construct: from tissue; host or cells: human plasma
# T5 sequence (P00747 97-580 limits assumed): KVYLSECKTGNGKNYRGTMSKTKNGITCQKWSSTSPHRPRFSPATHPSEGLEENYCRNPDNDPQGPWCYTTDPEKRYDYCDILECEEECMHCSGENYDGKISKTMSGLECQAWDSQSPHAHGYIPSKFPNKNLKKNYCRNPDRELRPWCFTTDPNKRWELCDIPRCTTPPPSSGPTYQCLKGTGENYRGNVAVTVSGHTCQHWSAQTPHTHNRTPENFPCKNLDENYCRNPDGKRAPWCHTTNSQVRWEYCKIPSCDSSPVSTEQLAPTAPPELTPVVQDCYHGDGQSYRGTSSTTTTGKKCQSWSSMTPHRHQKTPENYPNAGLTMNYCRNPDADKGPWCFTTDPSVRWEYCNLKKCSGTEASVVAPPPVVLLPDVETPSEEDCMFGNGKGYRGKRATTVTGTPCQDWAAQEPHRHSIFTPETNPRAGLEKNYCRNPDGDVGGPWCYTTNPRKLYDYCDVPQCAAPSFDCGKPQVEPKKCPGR
# T5 sequence (P00747 581-810 limits assumed): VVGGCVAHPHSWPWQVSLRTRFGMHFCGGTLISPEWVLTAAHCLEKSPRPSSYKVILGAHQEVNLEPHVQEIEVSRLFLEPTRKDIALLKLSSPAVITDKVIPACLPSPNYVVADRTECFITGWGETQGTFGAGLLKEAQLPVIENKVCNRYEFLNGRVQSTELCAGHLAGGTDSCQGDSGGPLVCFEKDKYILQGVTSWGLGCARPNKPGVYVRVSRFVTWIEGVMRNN
# Description: as §1, §3
# human plasma clots = assay: Clot lysis assay of Pi IgG, Fab and chimeric Fab, urokinase; type: biochemical; conditions: 25 nM-400 nM, 30 min
# Description: FIGS. 4A-4D show comparative inhibition of factor V cleavage and human clot fibrinolysis (dissolution) by Pi, EACA and a2AP. […] The relative migration of molecular weight standards is shown (kDa). […] Human plasma was clotted with CaCl2 (10 mM) and thrombin (1 U/ml) in the presence of trace amounts of 1251 fibrinogen for 1 h at 37 deg. C. After washing in 1 ml of TBS pH 7.4, tPA (5 nM) was added in the presence of various amounts of Pi (62.5 to 1000 nM), EACA (0.125 mM to 2 mM) or no inhibitor. After 2.5 h the amount of fibrinolysis was determined by measuring the amount of 125I-fibrin dissolved in the supernatant. Means of duplicate observations are shown. […] Clots were formed as above in the presence of human plasminogen (2 uM) and a2AP (1 uM) or Pi (1 uM) and various amounts of tPA (0-10 nM). Clot dissolution was monitored in duplicate over 2 h in microtiter plate wells at A405 nm. […] The amount of clot lysis was determined as described in Methods.
# The effects of Pi IgG, Fab or chimeric Fab were also compared in a clot lysis assay in microtiter plates. […] C. was monitored at 405 nm. The percent clot dissolution at 30 min. was determined as the percent change in peak turbidity from baseline=100%×(peak absorbance−30 min. absorbance)/(peak absorbance−baseline absorbance).
# Sequence of protease domain of reduced human plasmin (P00747 581-810 limits assumed): as above
molecule,measurement,setting,value
"Pi: mouse monoclonal antibody plasmin inhibitor binding plasmin protease domain loops 4 and 5; LC SEQ ID NO:1, HC SEQ ID NO:4 (antibody) heavy: EVKLLESGGGLVQPGGSLKLSCAASGFDFSRYWMSWVRQAPGKGLEWIGEINPDSSTINYTPSLKDKFIISRDNAKNSLYLQMSKVRSEDTALYYCASYCGYSYDALDCWGQGTSVTVSSAKTTPPSVYPLAPGSAAQTNSMVTLGCLVKGYFPEPVTVTWNSGSLSSGVHTFPAVLQSDLYTLSSSVTVPSSTWPSETVTCNVAHPASSTKVDKKIVPRDCGCKPCICTVPEVSSVFIFPPKPKDVLTITLTPKVTCVVVDISKDDPEVQFSWFVDDVEVHTAQTQPREEQFNSTFRSVSELPIMHQDWLNGKEFKCRVNSVAFPAPIEKTISKTKGRPKAPQVYTIPPPKEQMAKDKVSLTCMITDFFPEDITVEWQWNGQPAENYKNTQPIMDTDGSYFVYGKLNVQKSNWEAGNTFTCSVLHEGLHNHHTEKSLSHSPGK light: DIQMTQSPSSLSASLGGKVSITCKASQDINKYISWYQHKPGKGPRLLIHYTSTLQPGIPSRFSGSGSGRDYSFSISNLEPEDIATYYCLQYDNLYTFGGGTKLEIKRADAAPTVSIFPPSSEQLTSGGASVVCFLNNFYPKDINVKWKIDGSERQNGVLNSWTDQDSKDSTYSMSSTLTLTKDEYERHNSYTCEATHKTSTSPIVKSFNWNEC",binding by immunoblotting,[1],bound specifically to the protease domain of plasmin
same,specific binding vs control anti-digoxin antibody,chymotrypsin,no specific binding
same,specific binding vs control anti-digoxin antibody,human tPA,no specific binding
same,specific binding vs control anti-digoxin antibody,mouse plasminogen,no specific binding
same,specific binding vs control anti-digoxin antibody,trypsin,no specific binding
same,effect on plasmin activity generated by urokinase,[2],did not inhibit plasmin activity
same,effect on plasmin activity generated by urokinase,[3],did not inhibit plasmin activity
same,effect on plasmin activity generated by urokinase,[4],did not inhibit plasmin activity
same,effect on plasmin activity generated by urokinase,[5],did not inhibit plasmin activity
same,effect on plasmin activity generated by urokinase,[6],did not inhibit plasmin activity
same,effect on plasmin activity generated by urokinase,[7],did not inhibit plasmin activity
same,effect on plasmin activity generated by urokinase,[8],did not inhibit plasmin activity
same,effect on plasmin activity generated by urokinase,[9],did not inhibit plasmin activity
same,effect on plasmin activity generated by urokinase,[10],did not inhibit plasmin activity
same,effect on plasmin activity generated by urokinase,plasmin in human plasma,suppressed plasmin
same,inhibition of clot lysis by Pi molecular forms,human plasma clots,effectively inhibited clot lysis
